In general, IC50 refers to the point on the concentration scale where inhibition reaches its midpoint. Low readings indicate greater potency, high ones weaker potency.

Here are results for 2 molecules from patent publication US20150369821A1 (Pieris, published 2015).

Assay [1] concerns the target T1, non-modified Hepcidin-25 (human, not fully specified).
T1 construct: also called Hepc25; mature human hepcidin
T1 peptide: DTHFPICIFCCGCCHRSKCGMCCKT
In words: competition ELISA, non-modified Hepcidin-25 in solution (25 pM). On the technique in general: In an ELISA, binding on a coated surface is turned into a signal by an enzyme label.

For assay [2], the target named is T1, non-modified Hepcidin-25. Nature of the assay: cell-based or functional assay.

B1: hepcidin-specific lipocalin mutein of SEQ ID NO: 10 (designed binder)
chain: QDSTSDLIPAPPLSKVPLQQNFQDNQFHGKWYVVGLAGNEILREDKDPMKMWATIYELKEDRSYNVTIVMFLAKKCEYLFQTFVPGSQPGEFTLGDIKSSPGRTSGLVRVVSTNYNQHAMVFFKVVWQNREVFWITLYGRTKELTPELKENFIRFSKSLGLPENHIVFPVPIDQCIDGF
notes: Mutein of human NGAL (lipocalin 2); also called hNGAL mutein
Molecule B1 returned a 50% inhibitory concentration (IC50) with non-modified Hepcidin-25 [1] of 0.1 nM. Moreover, the “In Vitro Neutralization Activity Assay, IC50 [nM] (cell-based hepcidin-induced internalization of ferroportin-GFP)” value with non-modified Hepcidin-25 [2] was found to be 31 nM.

B2: hepcidin-specific lipocalin mutein of SEQ ID NO: 8 (designed binder)
chain: QDSTSDLIPAPPLSKVPLQQNFQDNQFHGKWYVVGLAGNEVLREDKDPMKMWATIYELKEDKSYNVTIVMPLAEKCEYLFQTFVPGSQPGEFTLGGIKSGPGRTSGLVRVVSTNYNQHAMVFFKVVWQNREVFWVTLYGRTKELTSELKENFIRFSKSLGLPENHIVFPVPIDQCIDG
notes: as for B1
For B2, the IC50 with non-modified Hepcidin-25 [1] came to 0.18 nM. In addition, the “In Vitro Neutralization Activity Assay, IC50 [nM] (cell-based hepcidin-induced internalization of ferroportin-GFP)” value with non-modified Hepcidin-25 [2] worked out at 25 nM.
